Laboratory results published in article PMC4543619 (British Journal of Pharmacology, 2015).
Where two headings read alike, the source gives them in different places.

Legend:
[1] = target: T1, native/full length GTP cyclohydrolase 1 (F‐GCH1), His6-tagged (human, UniProt P30793 1-250); assay: SPR
T1 sequence (looked up): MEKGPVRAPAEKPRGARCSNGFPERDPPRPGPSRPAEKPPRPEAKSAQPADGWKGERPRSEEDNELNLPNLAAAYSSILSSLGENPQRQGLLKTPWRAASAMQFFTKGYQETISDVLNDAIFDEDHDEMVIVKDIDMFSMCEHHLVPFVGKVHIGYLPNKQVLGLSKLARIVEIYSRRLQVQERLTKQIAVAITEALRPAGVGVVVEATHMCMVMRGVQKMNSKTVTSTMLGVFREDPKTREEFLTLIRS

[2] = target: T1, native/full length GTP cyclohydrolase 1 …; assay: SPR; remark: listed apart in the source

Kd [1]: 1 nM
Kd [2]: 8 nM
B1: GCH1 feedback regulatory protein (GFRP), His6 tag cleaved (natural protein)
chain: not shown
